Assay results taken from article PMC4602278.

Target: Litopenaeus vannamei IRF, endogenous in shrimp tissues (Litopenaeus vannamei (endogenous in intestines and hepatopancreas))
Experiment: native gel or EMSA; native-PAGE of shrimp tissue samples (intestines, hepatopancreas; hemocytes as negative control) with western-blot, beta-actin as control; also hepatopancreas at times after WSSV or poly (I:C) treatment

Litopenaeus vannamei IRF, endogenous in shrimp tissues (natural protein)
stoichiometry N: 2
